Data taken from paper PMC10083716.

Assays:
[1] = molecular target: T1, mouse 5-HT3A receptor L353A, full length (mouse) (UniProt P23979)
T1 sequence: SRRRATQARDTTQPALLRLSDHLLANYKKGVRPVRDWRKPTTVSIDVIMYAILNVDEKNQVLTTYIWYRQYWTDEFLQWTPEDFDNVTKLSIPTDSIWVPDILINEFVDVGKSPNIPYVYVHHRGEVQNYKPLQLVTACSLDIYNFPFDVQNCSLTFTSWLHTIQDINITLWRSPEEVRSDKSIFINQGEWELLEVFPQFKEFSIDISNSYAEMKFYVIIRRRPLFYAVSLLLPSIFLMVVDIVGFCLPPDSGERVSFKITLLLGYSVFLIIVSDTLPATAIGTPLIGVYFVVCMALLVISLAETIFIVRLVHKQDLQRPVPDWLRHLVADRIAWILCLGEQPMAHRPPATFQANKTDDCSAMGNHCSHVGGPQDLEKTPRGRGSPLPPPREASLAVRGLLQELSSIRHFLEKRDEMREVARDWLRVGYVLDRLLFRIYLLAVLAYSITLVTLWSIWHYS

[2] = molecular target: T2, mouse 5-HT3A receptor R349A, full length (mouse) (UniProt P23979)
T2 sequence: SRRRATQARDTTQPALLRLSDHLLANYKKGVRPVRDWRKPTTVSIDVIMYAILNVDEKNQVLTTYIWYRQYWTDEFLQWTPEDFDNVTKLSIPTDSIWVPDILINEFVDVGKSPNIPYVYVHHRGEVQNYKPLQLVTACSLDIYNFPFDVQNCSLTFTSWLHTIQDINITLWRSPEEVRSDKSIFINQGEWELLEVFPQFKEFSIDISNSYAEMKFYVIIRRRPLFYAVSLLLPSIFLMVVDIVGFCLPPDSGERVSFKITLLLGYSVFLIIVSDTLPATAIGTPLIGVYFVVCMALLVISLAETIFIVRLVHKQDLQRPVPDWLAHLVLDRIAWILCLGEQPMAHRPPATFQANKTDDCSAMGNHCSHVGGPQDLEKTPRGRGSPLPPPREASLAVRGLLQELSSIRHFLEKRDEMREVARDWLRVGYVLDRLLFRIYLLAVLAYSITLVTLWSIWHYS

[3] = molecular target: T3, mouse 5-HT3A receptor W347A, R349A, L353A, full length (mouse) (UniProt P23979)
T3 sequence: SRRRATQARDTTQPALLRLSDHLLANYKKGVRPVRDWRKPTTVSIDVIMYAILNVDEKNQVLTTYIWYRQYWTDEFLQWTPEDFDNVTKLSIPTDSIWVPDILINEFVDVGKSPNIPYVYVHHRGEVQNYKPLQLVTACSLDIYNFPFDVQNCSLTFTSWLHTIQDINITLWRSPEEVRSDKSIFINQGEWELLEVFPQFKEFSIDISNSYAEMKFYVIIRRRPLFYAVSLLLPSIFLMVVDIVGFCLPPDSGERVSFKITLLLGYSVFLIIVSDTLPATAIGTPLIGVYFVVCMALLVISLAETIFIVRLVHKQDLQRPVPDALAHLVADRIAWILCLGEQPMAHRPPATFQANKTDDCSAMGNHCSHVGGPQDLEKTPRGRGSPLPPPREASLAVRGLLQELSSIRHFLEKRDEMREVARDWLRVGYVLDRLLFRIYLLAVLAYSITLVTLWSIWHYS

[4] = molecular target: T4, mouse 5-HT3A receptor W347A, full length (mouse) (UniProt P23979)
T4 sequence: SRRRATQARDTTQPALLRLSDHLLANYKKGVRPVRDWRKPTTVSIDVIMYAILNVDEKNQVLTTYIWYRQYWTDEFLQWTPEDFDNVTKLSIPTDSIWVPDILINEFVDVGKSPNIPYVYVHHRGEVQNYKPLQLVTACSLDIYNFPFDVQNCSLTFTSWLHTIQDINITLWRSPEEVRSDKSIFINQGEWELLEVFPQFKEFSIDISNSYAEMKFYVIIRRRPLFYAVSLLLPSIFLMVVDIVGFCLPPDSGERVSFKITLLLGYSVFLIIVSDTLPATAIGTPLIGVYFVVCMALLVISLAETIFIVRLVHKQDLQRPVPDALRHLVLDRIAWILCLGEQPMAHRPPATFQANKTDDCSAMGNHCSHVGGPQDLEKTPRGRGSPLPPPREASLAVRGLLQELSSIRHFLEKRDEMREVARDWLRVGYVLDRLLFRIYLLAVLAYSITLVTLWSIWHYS

[5] = molecular target: T5, mouse 5-HT3A receptor, wild type, full length (mouse) (UniProt P23979)
T5 sequence: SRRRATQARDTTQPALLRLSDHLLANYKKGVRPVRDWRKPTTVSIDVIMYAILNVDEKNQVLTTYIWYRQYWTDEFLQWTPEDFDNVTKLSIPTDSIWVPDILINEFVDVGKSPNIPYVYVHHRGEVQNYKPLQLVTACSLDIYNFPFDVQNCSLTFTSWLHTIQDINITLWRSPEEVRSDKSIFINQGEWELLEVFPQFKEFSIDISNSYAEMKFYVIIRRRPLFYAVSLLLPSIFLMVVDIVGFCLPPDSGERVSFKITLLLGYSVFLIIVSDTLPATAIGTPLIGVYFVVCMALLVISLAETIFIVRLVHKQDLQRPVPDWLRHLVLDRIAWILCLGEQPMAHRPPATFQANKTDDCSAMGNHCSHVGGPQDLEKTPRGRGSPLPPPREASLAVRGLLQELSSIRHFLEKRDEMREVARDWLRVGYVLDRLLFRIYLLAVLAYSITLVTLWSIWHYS

[6] = molecular target: T6, mouse 5-HT3A receptor W447A, R449A, L454A, full length (mouse) (UniProt P23979)
T6 sequence: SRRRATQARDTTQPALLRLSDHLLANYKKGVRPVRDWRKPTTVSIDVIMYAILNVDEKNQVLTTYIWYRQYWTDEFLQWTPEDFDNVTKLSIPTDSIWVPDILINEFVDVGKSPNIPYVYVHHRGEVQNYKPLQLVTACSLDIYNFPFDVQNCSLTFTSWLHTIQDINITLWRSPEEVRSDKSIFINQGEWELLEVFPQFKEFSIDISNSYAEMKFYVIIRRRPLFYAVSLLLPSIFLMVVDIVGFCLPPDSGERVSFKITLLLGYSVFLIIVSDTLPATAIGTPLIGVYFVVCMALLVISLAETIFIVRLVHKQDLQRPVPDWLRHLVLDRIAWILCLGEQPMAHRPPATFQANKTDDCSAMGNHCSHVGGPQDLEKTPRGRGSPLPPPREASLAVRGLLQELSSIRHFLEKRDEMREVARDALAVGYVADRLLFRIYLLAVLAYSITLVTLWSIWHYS

remaining current (%): peak 5-HT-evoked current of 5-HT3A channels co-expressed with RIC-3 divided by that of the channels alone; TEVC in Xenopus oocytes, 10 uM serotonin [1]: 50%
remaining current (%): peak 5-HT-evoked current of 5-HT3A channels co-expressed with RIC-3 divided by that of the channels alone; TEVC in Xenopus oocytes, 10 uM serotonin [2]: 33.9%
remaining current (%): peak 5-HT-evoked current of 5-HT3A channels co-expressed with RIC-3 divided by that of the channels alone; TEVC in Xenopus oocytes, 10 uM serotonin [3]: 40.6%
remaining current (%): peak 5-HT-evoked current of 5-HT3A channels co-expressed with RIC-3 divided by that of the channels alone; TEVC in Xenopus oocytes, 10 uM serotonin [4]: 43.4%
remaining current (%): peak 5-HT-evoked current of 5-HT3A channels co-expressed with RIC-3 divided by that of the channels alone; TEVC in Xenopus oocytes, 10 uM serotonin [5]: 15.6%
remaining current (%): peak 5-HT-evoked current of 5-HT3A channels co-expressed with RIC-3 divided by that of the channels alone; TEVC in Xenopus oocytes, 10 uM serotonin [6]: 36.9%
B1: resistance to inhibitors of choline esterase (RIC-3) protein (natural protein)
chain: SRGKRQEPPPTPEGKLGRFPPMMHHHQAPSDGQTPGARFQRSHLAEAFAKAKGSGGGAGGGGSGRGLMGQIIPIYGFGIFLYILYILFKLSKGKTTAEDGKCYTAMPGNTHRKITSFELAQLQEKLKETEAAMEKLINRVGPNGESRAQTVTSDQEKRLLHQLREITRVMKEGKFIDRFSPEKEAEEAPYMEDWEGYPEETYPIYDLSDCIKRRQETILVDYPDPKELSAEEIAERMGMIEEEESDHLGWESLPTDPRAQEDNSVTSCDPKPETCSCCFHEDEDPAVLAENAGFSADSYPEQEETTKEEWSQDFKDEGLGISTDKAYTGSMLRKRNPQGLE
